In US20050203022A1:

Molecular target: TGFβ1 (UniProt P01137)
Test: cell-based or functional assay

Chain of UniProt P01137 (P01137 279-390 limits assumed): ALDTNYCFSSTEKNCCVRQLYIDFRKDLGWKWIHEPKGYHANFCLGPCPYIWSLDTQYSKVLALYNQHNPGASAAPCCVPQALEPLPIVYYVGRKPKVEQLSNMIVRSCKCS

control IgG (antibody)
[3H] thymidine incorporation (CPM) of CCL64 mink lung cells with 0.1 ng/ml TGFβ1, control IgG at 0.02 µg/ml: 43000 CPM
[3H] thymidine incorporation (CPM) of CCL64 mink lung cells with 0.1 ng/ml TGFβ1, control IgG at 0.04 µg/ml: 54400 CPM
[3H] thymidine incorporation (CPM) of CCL64 mink lung cells with 0.1 ng/ml TGFβ1, control IgG at 0.08 µg/ml: 61900 CPM
[3H] thymidine incorporation (CPM) of CCL64 mink lung cells with 0.1 ng/ml TGFβ1, control IgG at 0.16 µg/ml: 52800 CPM
[3H] thymidine incorporation (CPM) of CCL64 mink lung cells with 0.1 ng/ml TGFβ1, control IgG at 0.31 µg/ml: 52400 CPM
[3H] thymidine incorporation (CPM) of CCL64 mink lung cells with 0.1 ng/ml TGFβ1, control IgG at 0.62 µg/ml: 56700 CPM
[3H] thymidine incorporation (CPM) of CCL64 mink lung cells with 0.1 ng/ml TGFβ1, control IgG at 1.25 µg/ml: 51400 CPM
[3H] thymidine incorporation (CPM) of CCL64 mink lung cells with 0.1 ng/ml TGFβ1, control IgG at 2.5 µg/ml: 54400 CPM
[3H] thymidine incorporation (CPM) of CCL64 mink lung cells with 0.1 ng/ml TGFβ1, control IgG at 5 µg/ml: 55100 CPM
[3H] thymidine incorporation (CPM) of CCL64 mink lung cells with 0.1 ng/ml TGFβ1, control IgG at 10 µg/ml: 53600 CPM

recombinant rabbit TGFβRII:Fc fusion protein
[3H] thymidine incorporation (CPM) of CCL64 mink lung cells with 0.1 ng/ml TGFβ1, TGFβRII:Fc at 0.02 µg/ml: 57700 CPM
[3H] thymidine incorporation (CPM) of CCL64 mink lung cells with 0.1 ng/ml TGFβ1, TGFβRII:Fc at 0.04 µg/ml: 49900 CPM
[3H] thymidine incorporation (CPM) of CCL64 mink lung cells with 0.1 ng/ml TGFβ1, TGFβRII:Fc at 0.08 µg/ml: 63800 CPM
[3H] thymidine incorporation (CPM) of CCL64 mink lung cells with 0.1 ng/ml TGFβ1, TGFβRII:Fc at 0.16 µg/ml: 75100 CPM
[3H] thymidine incorporation (CPM) of CCL64 mink lung cells with 0.1 ng/ml TGFβ1, TGFβRII:Fc at 0.31 µg/ml: 119000 CPM
[3H] thymidine incorporation (CPM) of CCL64 mink lung cells with 0.1 ng/ml TGFβ1, TGFβRII:Fc at 0.62 µg/ml: 150000 CPM
[3H] thymidine incorporation (CPM) of CCL64 mink lung cells with 0.1 ng/ml TGFβ1, TGFβRII:Fc at 1.25 µg/ml: 168000 CPM
[3H] thymidine incorporation (CPM) of CCL64 mink lung cells with 0.1 ng/ml TGFβ1, TGFβRII:Fc at 2.5 µg/ml: 179000 CPM
[3H] thymidine incorporation (CPM) of CCL64 mink lung cells with 0.1 ng/ml TGFβ1, TGFβRII:Fc at 5 µg/ml: 179000 CPM
[3H] thymidine incorporation (CPM) of CCL64 mink lung cells with 0.1 ng/ml TGFβ1, TGFβRII:Fc at 10 µg/ml: 182000 CPM
amount required to inhibit the anti-proliferative effect of 0.1 ng/ml TGFβ1 by 50%: 0.5 µg/mL
